Earlier results in publication PMC12493192.
Where two headings read alike, the source gives them in different places.

Key:
GC-C (Homo sapiens) [1] = molecular target: GC-C (Homo sapiens) (UniProt P25092)
GC-C (Homo sapiens) [2] = molecular target: GC-C (Homo sapiens) (UniProt P25092); remark: listed apart in the source

UniProt P25092, sequence (P25092 24-430): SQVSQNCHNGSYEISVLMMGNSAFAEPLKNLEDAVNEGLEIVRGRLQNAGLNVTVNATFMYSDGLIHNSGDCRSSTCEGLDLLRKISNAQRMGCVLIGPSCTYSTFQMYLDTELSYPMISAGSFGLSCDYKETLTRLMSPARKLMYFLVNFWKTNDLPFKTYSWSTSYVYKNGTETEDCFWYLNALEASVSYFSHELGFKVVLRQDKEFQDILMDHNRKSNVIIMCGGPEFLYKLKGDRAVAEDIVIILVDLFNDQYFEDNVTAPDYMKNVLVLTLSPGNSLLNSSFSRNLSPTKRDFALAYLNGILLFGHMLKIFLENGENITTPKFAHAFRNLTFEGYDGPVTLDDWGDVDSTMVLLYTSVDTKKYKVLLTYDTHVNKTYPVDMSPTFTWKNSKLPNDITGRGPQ

Kd (GC-C (Homo sapiens) [1])	Kd (GC-C (Homo sapiens) [2])	Substance
10 nM		guanylin (from UniProt Q02747)
	1 nM	uroguanylin (from UniProt Q16661)
